Assay results reported in patent publication US20190015483A1 (CSL BEHRING RECOMBINANT FACILITY, published 2019).
Several values for one entry are separate records, joined by “and”; a condition that tells them apart may be missing. Identical values can stand only once.

T1: recombinant Factor VIII (CSL627, rVIII-SingleChain) (Homo sapiens (Human), UniProt P00451 20-2351)
T1 construct: also called FVIII
T1 sequence: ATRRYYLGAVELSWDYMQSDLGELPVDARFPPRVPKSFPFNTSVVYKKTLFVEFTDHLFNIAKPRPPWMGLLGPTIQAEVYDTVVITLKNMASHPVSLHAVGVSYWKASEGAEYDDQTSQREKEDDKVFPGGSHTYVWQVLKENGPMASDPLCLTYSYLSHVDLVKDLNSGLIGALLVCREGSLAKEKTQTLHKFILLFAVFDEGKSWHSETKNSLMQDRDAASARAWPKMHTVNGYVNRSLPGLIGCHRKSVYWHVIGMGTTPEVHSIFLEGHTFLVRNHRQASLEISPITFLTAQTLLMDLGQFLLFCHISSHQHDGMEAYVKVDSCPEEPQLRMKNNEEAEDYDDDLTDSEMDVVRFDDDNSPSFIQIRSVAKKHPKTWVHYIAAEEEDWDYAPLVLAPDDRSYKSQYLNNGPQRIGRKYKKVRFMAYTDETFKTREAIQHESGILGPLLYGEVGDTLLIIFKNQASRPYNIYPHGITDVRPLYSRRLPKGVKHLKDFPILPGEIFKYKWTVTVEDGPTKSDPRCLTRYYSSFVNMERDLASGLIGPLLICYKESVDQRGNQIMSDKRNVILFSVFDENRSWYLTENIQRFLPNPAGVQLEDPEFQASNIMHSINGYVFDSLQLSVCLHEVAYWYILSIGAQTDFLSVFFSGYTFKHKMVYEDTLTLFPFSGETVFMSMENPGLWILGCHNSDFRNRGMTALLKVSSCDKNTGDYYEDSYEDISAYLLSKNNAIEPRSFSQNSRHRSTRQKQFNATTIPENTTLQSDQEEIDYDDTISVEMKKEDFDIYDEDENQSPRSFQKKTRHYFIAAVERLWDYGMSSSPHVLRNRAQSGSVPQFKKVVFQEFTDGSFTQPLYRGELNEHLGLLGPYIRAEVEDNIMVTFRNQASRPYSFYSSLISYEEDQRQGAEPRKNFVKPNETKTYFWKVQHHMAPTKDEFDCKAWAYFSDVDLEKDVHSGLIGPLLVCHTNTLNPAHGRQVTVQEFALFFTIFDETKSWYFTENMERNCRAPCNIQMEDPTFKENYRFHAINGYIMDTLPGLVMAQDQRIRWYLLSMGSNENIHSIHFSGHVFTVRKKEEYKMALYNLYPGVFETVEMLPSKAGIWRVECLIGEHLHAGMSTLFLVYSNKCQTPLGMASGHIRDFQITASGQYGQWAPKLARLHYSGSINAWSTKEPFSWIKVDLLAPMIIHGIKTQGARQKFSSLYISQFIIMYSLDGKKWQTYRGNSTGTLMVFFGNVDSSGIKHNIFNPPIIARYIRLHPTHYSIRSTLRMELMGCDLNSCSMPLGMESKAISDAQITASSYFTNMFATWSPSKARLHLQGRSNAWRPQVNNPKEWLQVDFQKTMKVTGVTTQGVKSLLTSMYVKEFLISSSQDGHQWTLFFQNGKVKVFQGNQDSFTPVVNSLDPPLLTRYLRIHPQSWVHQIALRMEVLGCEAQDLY

T2: recombinant Factor VIII (CSL627, rVIII-SingleChain) (Homo sapiens (Human), UniProt P00451 20-2351)
T2 construct: also called FVIII
T2 sequence: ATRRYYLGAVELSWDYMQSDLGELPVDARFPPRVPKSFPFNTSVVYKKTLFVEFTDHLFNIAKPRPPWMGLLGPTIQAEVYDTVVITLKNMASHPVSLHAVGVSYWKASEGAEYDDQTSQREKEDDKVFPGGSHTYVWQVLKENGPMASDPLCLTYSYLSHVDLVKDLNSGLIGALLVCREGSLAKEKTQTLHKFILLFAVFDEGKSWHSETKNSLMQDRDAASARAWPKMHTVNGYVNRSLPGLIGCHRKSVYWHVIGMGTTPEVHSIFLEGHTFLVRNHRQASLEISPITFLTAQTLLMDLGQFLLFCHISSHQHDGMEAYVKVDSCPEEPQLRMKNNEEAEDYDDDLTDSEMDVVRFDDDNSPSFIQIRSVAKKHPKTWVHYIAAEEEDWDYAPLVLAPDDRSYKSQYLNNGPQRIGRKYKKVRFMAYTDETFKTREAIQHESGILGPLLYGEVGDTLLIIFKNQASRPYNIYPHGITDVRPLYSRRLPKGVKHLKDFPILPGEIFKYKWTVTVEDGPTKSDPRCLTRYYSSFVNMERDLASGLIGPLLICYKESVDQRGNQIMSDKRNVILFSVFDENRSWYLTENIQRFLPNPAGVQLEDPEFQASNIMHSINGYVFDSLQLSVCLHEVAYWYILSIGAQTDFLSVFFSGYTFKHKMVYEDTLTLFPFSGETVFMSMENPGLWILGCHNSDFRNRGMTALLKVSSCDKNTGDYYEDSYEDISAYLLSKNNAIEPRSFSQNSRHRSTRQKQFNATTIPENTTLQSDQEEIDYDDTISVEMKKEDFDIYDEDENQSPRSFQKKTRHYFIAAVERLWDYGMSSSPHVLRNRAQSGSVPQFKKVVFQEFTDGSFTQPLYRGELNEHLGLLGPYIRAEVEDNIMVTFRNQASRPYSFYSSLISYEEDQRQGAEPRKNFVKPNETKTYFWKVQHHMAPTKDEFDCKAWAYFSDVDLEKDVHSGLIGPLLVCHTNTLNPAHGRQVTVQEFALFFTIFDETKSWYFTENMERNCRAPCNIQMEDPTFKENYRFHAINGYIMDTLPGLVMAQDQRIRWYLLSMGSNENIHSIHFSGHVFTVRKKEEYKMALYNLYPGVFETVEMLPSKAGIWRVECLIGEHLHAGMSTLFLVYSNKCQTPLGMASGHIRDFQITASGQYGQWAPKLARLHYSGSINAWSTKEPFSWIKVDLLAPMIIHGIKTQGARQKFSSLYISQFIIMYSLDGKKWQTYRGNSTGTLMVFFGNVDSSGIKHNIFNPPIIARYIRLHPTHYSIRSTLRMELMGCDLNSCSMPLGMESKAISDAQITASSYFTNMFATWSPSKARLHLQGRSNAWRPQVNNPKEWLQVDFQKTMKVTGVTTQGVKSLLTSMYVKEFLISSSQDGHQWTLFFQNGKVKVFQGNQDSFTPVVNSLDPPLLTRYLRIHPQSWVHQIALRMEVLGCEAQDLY


Tests used:
[1] = biological target: recombinant Factor VIII (CSL627, rVIII-SingleChain) (Homo sapiens (Human)) (UniProt P00451); experiment: SPR, anti-His capture, FVIII injected, 37 C
[2] = biological target: T1, recombinant Factor VIII (CSL627, …); experiment: SPR, anti-His capture
In short: (§1)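 Kinetic constants come from 1:1 model fits of sensorgrams corrected against an anti-His-only spot and a buffer blank. In this screen, mutants from cell medium sat at 40-150 RU, and FVIII flowed over at 1 nM for 5 minutes, then dissociated for 5 minutes.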

[3] = biological target: T1, recombinant Factor VIII (CSL627, …); experiment: SPR, anti-His capture; remark: listed apart in the source
In short: as §1

[4] = biological target: T2, recombinant Factor VIII (CSL627, …); experiment: SPR, anti-His capture, FVIII injected, pH 5.5

Molecule	Kd [3]	koff [3]	kon [3]	Kd [4]	koff [4]	kon [4]	also measured
Hu-vWF[764-1270]-8His dupS764/S764P/S766I (from UniProt P04275 767-1270)	–	–	–	–	–	–	Kd [1]: 0.255 nM and 0.199 nM; koff [1]: 0.00159 s⁻¹ and 0.0025 s⁻¹; kon [1]: 6.23e+06 M⁻¹ s⁻¹ and 1.25e+07 M⁻¹ s⁻¹
Hu-vWF[764-1270]-8His S764P-S766Y (other) PLYCRPPMVKLVCPADNLRAEGLECTKTCQNYDLECMSMGCVSGCLCPPGMVRHENRCVALERCPCFHQGKEYAPGETVKIGCNTCVCRDRKWNCTDHVCDATCSTIGMAHYLTFDGLKYLFPGECQYVLVQDYCGSNPGTFRILVGNKGCSHPSVKCKKRVTILVEGGEIELFDGEVNVKRPMKDETHFEVVESGRYIILLLGKALSVVWDRHLSISVVLKQTYQEKVCGLCGNFDGIQNNDLTSSNLQVEEDPVDFGNSWKVSSQCADTRKVPLDSSPATCHNNIMKQTMVDSSCRILTSDVFQDCNKLVDPEPYLDVCIYDTCSCESIGDCACFCDTIAAYAHVCAQHGKVVTWRTATLCPQSCEERNLRENGYECEWRYNSCAPACQVTCQHPEPLACPVQCVEGCHAHCPPGKILDELLQTCVDPEDCPVCEVAGRRFASGKKVTLNPSDPEHCQICHCDVVNLTCEACQEPGGLVVPPTDAPVSPTTLYVEDISEPPLHDFHHHHHHHH	7.16 pM	7.71e-05 s⁻¹	1.08e+07 M⁻¹ s⁻¹	–	–	–	Kd [2]: 7.16 pM; koff [2]: 7.71e-05 s⁻¹; kon [2]: 1.08e+07 M⁻¹ s⁻¹
Hu-vWF[764-1270]-8His S764Y/S766Y (other) YLYCRPPMVKLVCPADNLRAEGLECTKTCQNYDLECMSMGCVSGCLCPPGMVRHENRCVALERCPCFHQGKEYAPGETVKIGCNTCVCRDRKWNCTDHVCDATCSTIGMAHYLTFDGLKYLFPGECQYVLVQDYCGSNPGTFRILVGNKGCSHPSVKCKKRVTILVEGGEIELFDGEVNVKRPMKDETHFEVVESGRYIILLLGKALSVVWDRHLSISVVLKQTYQEKVCGLCGNFDGIQNNDLTSSNLQVEEDPVDFGNSWKVSSQCADTRKVPLDSSPATCHNNIMKQTMVDSSCRILTSDVFQDCNKLVDPEPYLDVCIYDTCSCESIGDCACFCDTIAAYAHVCAQHGKVVTWRTATLCPQSCEERNLRENGYECEWRYNSCAPACQVTCQHPEPLACPVQCVEGCHAHCPPGKILDELLQTCVDPEDCPVCEVAGRRFASGKKVTLNPSDPEHCQICHCDVVNLTCEACQEPGGLVVPPTDAPVSPTTLYVEDISEPPLHDFHHHHHHHH	2.47 pM	7.88e-05 s⁻¹	3.19e+07 M⁻¹ s⁻¹	–	–	–	–
Hu-vWF[764-1270]-8His S764P-S766L (other) PLLCRPPMVKLVCPADNLRAEGLECTKTCQNYDLECMSMGCVSGCLCPPGMVRHENRCVALERCPCFHQGKEYAPGETVKIGCNTCVCRDRKWNCTDHVCDATCSTIGMAHYLTFDGLKYLFPGECQYVLVQDYCGSNPGTFRILVGNKGCSHPSVKCKKRVTILVEGGEIELFDGEVNVKRPMKDETHFEVVESGRYIILLLGKALSVVWDRHLSISVVLKQTYQEKVCGLCGNFDGIQNNDLTSSNLQVEEDPVDFGNSWKVSSQCADTRKVPLDSSPATCHNNIMKQTMVDSSCRILTSDVFQDCNKLVDPEPYLDVCIYDTCSCESIGDCACFCDTIAAYAHVCAQHGKVVTWRTATLCPQSCEERNLRENGYECEWRYNSCAPACQVTCQHPEPLACPVQCVEGCHAHCPPGKILDELLQTCVDPEDCPVCEVAGRRFASGKKVTLNPSDPEHCQICHCDVVNLTCEACQEPGGLVVPPTDAPVSPTTLYVEDISEPPLHDFHHHHHHHH	–	–	–	0.234 nM	0.000104 s⁻¹	445000 M⁻¹ s⁻¹	–
Hu-vWF[764-1270]-8His S764P-S766W (other) PLWCRPPMVKLVCPADNLRAEGLECTKTCQNYDLECMSMGCVSGCLCPPGMVRHENRCVALERCPCFHQGKEYAPGETVKIGCNTCVCRDRKWNCTDHVCDATCSTIGMAHYLTFDGLKYLFPGECQYVLVQDYCGSNPGTFRILVGNKGCSHPSVKCKKRVTILVEGGEIELFDGEVNVKRPMKDETHFEVVESGRYIILLLGKALSVVWDRHLSISVVLKQTYQEKVCGLCGNFDGIQNNDLTSSNLQVEEDPVDFGNSWKVSSQCADTRKVPLDSSPATCHNNIMKQTMVDSSCRILTSDVFQDCNKLVDPEPYLDVCIYDTCSCESIGDCACFCDTIAAYAHVCAQHGKVVTWRTATLCPQSCEERNLRENGYECEWRYNSCAPACQVTCQHPEPLACPVQCVEGCHAHCPPGKILDELLQTCVDPEDCPVCEVAGRRFASGKKVTLNPSDPEHCQICHCDVVNLTCEACQEPGGLVVPPTDAPVSPTTLYVEDISEPPLHDFHHHHHHHH	–	–	–	0.172 nM	4.75e-05 s⁻¹	277000 M⁻¹ s⁻¹	–
Hu-vWF[764-1270]-8His S764P-S766M (other) PLMCRPPMVKLVCPADNLRAEGLECTKTCQNYDLECMSMGCVSGCLCPPGMVRHENRCVALERCPCFHQGKEYAPGETVKIGCNTCVCRDRKWNCTDHVCDATCSTIGMAHYLTFDGLKYLFPGECQYVLVQDYCGSNPGTFRILVGNKGCSHPSVKCKKRVTILVEGGEIELFDGEVNVKRPMKDETHFEVVESGRYIILLLGKALSVVWDRHLSISVVLKQTYQEKVCGLCGNFDGIQNNDLTSSNLQVEEDPVDFGNSWKVSSQCADTRKVPLDSSPATCHNNIMKQTMVDSSCRILTSDVFQDCNKLVDPEPYLDVCIYDTCSCESIGDCACFCDTIAAYAHVCAQHGKVVTWRTATLCPQSCEERNLRENGYECEWRYNSCAPACQVTCQHPEPLACPVQCVEGCHAHCPPGKILDELLQTCVDPEDCPVCEVAGRRFASGKKVTLNPSDPEHCQICHCDVVNLTCEACQEPGGLVVPPTDAPVSPTTLYVEDISEPPLHDFHHHHHHHH	–	–	–	0.292 nM	9.16e-05 s⁻¹	314000 M⁻¹ s⁻¹	–
